Starred links: 1 amine or outer side, 2 acyl side, 3 side chain; linkers in the order of their positions; H or OH if unused. Positions of bridges follow the written chain, without caps; N, C: chain ends. Non-standard residues stand in square brackets, D forms with d. Primed or numbered codes have the meaning given here. *: point of attachment. B21″ = 2,7-dimethylnaphtyl linker joining two Cys, c1cc2ccc(C[*:2])cc2cc1C[*:1]; Palmitoyl = CCCCCCCCCCCCCCCC(=O)*; tBuAla = CC(C)(C)C[C@H](N)C(=O)O; Suc = O=C(CCC(=O)[*:2])[*:1]; Isovaleryl = CC(C)CC(=O)*; Pentanoyl = CCCCC(=O)*; B1 = not defined here; B2 = not defined here
B1: peptide 12 (peptide)
peptide: Suc-[dA]NYLALIEALIRAAQEQQEKNEAAL[dR]-NH2
SMILES: CC[C@H](C)[C@H](NC(=O)[C@H](CC(C)C)NC(=O)[C@H](C)NC(=O)[C@H](CCC(=O)O)NC(=O)[C@@H](NC(=O)[C@H](CC(C)C)NC(=O)[C@H](C)NC(=O)[C@H](CC(C)C)NC(=O)[C@H](Cc1ccc(O)cc1)NC(=O)[C@H](CC(N)=O)NC(=O)[C@@H](C)NC(=O)CCC(=O)O)[C@@H](C)CC)C(=O)N[C@@H](CCCNC(=N)N)C(=O)N[C@@H](C)C(=O)N[C@@H](C)C(=O)N[C@@H](CCC(N)=O)C(=O)N[C@@H](CCC(=O)O)C(=O)N[C@@H](CCC(N)=O)C(=O)N[C@@H](CCC(N)=O)C(=O)N[C@@H](CCC(=O)O)C(=O)N[C@@H](CCCCN)C(=O)N[C@@H](CC(N)=O)C(=O)N[C@@H](CCC(=O)O)C(=O)N[C@@H](C)C(=O)N[C@@H](C)C(=O)N[C@@H](CC(C)C)C(=O)N[C@H](CCCNC(=N)N)C(N)=O
B2: peptide 14 (peptide)
peptide: Pentanoyl-ANYAALIEALIRAAQEQQEKNEAALR-NH2
SMILES: CCCCC(=O)N[C@@H](C)C(=O)N[C@@H](CC(N)=O)C(=O)N[C@@H](Cc1ccc(O)cc1)C(=O)N[C@@H](C)C(=O)N[C@@H](C)C(=O)N[C@@H](CC(C)C)C(=O)N[C@H](C(=O)N[C@@H](CCC(=O)O)C(=O)N[C@@H](C)C(=O)N[C@@H](CC(C)C)C(=O)N[C@H](C(=O)N[C@@H](CCCNC(=N)N)C(=O)N[C@@H](C)C(=O)N[C@@H](C)C(=O)N[C@@H](CCC(N)=O)C(=O)N[C@@H](CCC(=O)O)C(=O)N[C@@H](CCC(N)=O)C(=O)N[C@@H](CCC(N)=O)C(=O)N[C@@H](CCC(=O)O)C(=O)N[C@@H](CCCCN)C(=O)N[C@@H](CC(N)=O)C(=O)N[C@@H](CCC(=O)O)C(=O)N[C@@H](C)C(=O)N[C@@H](C)C(=O)N[C@@H](CC(C)C)C(=O)N[C@@H](CCCNC(=N)N)C(N)=O)[C@@H](C)CC)[C@@H](C)CC
B3: peptide 16 (peptide)
peptide: Pentanoyl-ANYAALIEALIRKAQEQQEKNEAALR-NH2
SMILES: CCCCC(=O)N[C@@H](C)C(=O)N[C@@H](CC(N)=O)C(=O)N[C@@H](Cc1ccc(O)cc1)C(=O)N[C@@H](C)C(=O)N[C@@H](C)C(=O)N[C@@H](CC(C)C)C(=O)N[C@H](C(=O)N[C@@H](CCC(=O)O)C(=O)N[C@@H](C)C(=O)N[C@@H](CC(C)C)C(=O)N[C@H](C(=O)N[C@@H](CCCNC(=N)N)C(=O)N[C@@H](CCCCN)C(=O)N[C@@H](C)C(=O)N[C@@H](CCC(N)=O)C(=O)N[C@@H](CCC(=O)O)C(=O)N[C@@H](CCC(N)=O)C(=O)N[C@@H](CCC(N)=O)C(=O)N[C@@H](CCC(=O)O)C(=O)N[C@@H](CCCCN)C(=O)N[C@@H](CC(N)=O)C(=O)N[C@@H](CCC(=O)O)C(=O)N[C@@H](C)C(=O)N[C@@H](C)C(=O)N[C@@H](CC(C)C)C(=O)N[C@@H](CCCNC(=N)N)C(N)=O)[C@@H](C)CC)[C@@H](C)CC
B4: peptide 22 (peptide)
peptide: Ac-CYAACIEALIRAAQEQQEKNEAALR-NH2
modifications: linker 1-5 via B21″
SMILES: CC[C@H](C)[C@H](NC(=O)[C@H](CC(C)C)NC(=O)[C@H](C)NC(=O)[C@H](CCC(=O)O)NC(=O)[C@@H](NC(=O)[C@@H]1CSCc2ccc3ccc(cc3c2)CSC[C@H](NC(C)=O)C(=O)N[C@@H](Cc2ccc(O)cc2)C(=O)N[C@@H](C)C(=O)N[C@@H](C)C(=O)N1)[C@@H](C)CC)C(=O)N[C@@H](CCCNC(=N)N)C(=O)N[C@@H](C)C(=O)N[C@@H](C)C(=O)N[C@@H](CCC(N)=O)C(=O)N[C@@H](CCC(=O)O)C(=O)N[C@@H](CCC(N)=O)C(=O)N[C@@H](CCC(N)=O)C(=O)N[C@@H](CCC(=O)O)C(=O)N[C@@H](CCCCN)C(=O)N[C@@H](CC(N)=O)C(=O)N[C@@H](CCC(=O)O)C(=O)N[C@@H](C)C(=O)N[C@@H](C)C(=O)N[C@@H](CC(C)C)C(=O)N[C@@H](CCCNC(=N)N)C(N)=O
B5: peptide 21 (peptide)
peptide: Ac-CYAACIEALIRAAQEQQEKNEAALR-NH2
modifications: linker 1-5 via B1; reading uncertain
B6: peptide 17 (peptide)
peptide: Isovaleryl-ANYAALIEALIRAAQEQQEKNEAALR-NH2
SMILES: CC[C@H](C)[C@H](NC(=O)[C@H](CC(C)C)NC(=O)[C@H](C)NC(=O)[C@H](CCC(=O)O)NC(=O)[C@@H](NC(=O)[C@H](CC(C)C)NC(=O)[C@H](C)NC(=O)[C@H](C)NC(=O)[C@H](Cc1ccc(O)cc1)NC(=O)[C@H](CC(N)=O)NC(=O)[C@H](C)NC(=O)CC(C)C)[C@@H](C)CC)C(=O)N[C@@H](CCCNC(=N)N)C(=O)N[C@@H](C)C(=O)N[C@@H](C)C(=O)N[C@@H](CCC(N)=O)C(=O)N[C@@H](CCC(=O)O)C(=O)N[C@@H](CCC(N)=O)C(=O)N[C@@H](CCC(N)=O)C(=O)N[C@@H](CCC(=O)O)C(=O)N[C@@H](CCCCN)C(=O)N[C@@H](CC(N)=O)C(=O)N[C@@H](CCC(=O)O)C(=O)N[C@@H](C)C(=O)N[C@@H](C)C(=O)N[C@@H](CC(C)C)C(=O)N[C@@H](CCCNC(=N)N)C(N)=O
B7: peptide 15 (peptide)
peptide: Pentanoyl-ANYLALIEALIRAAQEQQEKNEAALR-NH2
SMILES: CCCCC(=O)N[C@@H](C)C(=O)N[C@@H](CC(N)=O)C(=O)N[C@@H](Cc1ccc(O)cc1)C(=O)N[C@@H](CC(C)C)C(=O)N[C@@H](C)C(=O)N[C@@H](CC(C)C)C(=O)N[C@H](C(=O)N[C@@H](CCC(=O)O)C(=O)N[C@@H](C)C(=O)N[C@@H](CC(C)C)C(=O)N[C@H](C(=O)N[C@@H](CCCNC(=N)N)C(=O)N[C@@H](C)C(=O)N[C@@H](C)C(=O)N[C@@H](CCC(N)=O)C(=O)N[C@@H](CCC(=O)O)C(=O)N[C@@H](CCC(N)=O)C(=O)N[C@@H](CCC(N)=O)C(=O)N[C@@H](CCC(=O)O)C(=O)N[C@@H](CCCCN)C(=O)N[C@@H](CC(N)=O)C(=O)N[C@@H](CCC(=O)O)C(=O)N[C@@H](C)C(=O)N[C@@H](C)C(=O)N[C@@H](CC(C)C)C(=O)N[C@@H](CCCNC(=N)N)C(N)=O)[C@@H](C)CC)[C@@H](C)CC
B8: peptide 23 (peptide)
peptide: Suc-CYLACIEELIRKAQEQQEKNEAAL[tBuAla]-NH2
modifications: linker 1-5 via B2; reading uncertain
B9: peptide 13 (peptide)
peptide: Suc-ANYLALIEALIRAAQEQQEKNEAALK(Palmitoyl)-NH2
SMILES: CCCCCCCCCCCCCCCC(=O)NCCCC[C@H](NC(=O)[C@H](CC(C)C)NC(=O)[C@H](C)NC(=O)[C@H](C)NC(=O)[C@H](CCC(=O)O)NC(=O)[C@H](CC(N)=O)NC(=O)[C@H](CCCCN)NC(=O)[C@H](CCC(=O)O)NC(=O)[C@H](CCC(N)=O)NC(=O)[C@H](CCC(N)=O)NC(=O)[C@H](CCC(=O)O)NC(=O)[C@H](CCC(N)=O)NC(=O)[C@H](C)NC(=O)[C@H](C)NC(=O)[C@H](CCCNC(=N)N)NC(=O)[C@@H](NC(=O)[C@H](CC(C)C)NC(=O)[C@H](C)NC(=O)[C@H](CCC(=O)O)NC(=O)[C@@H](NC(=O)[C@H](CC(C)C)NC(=O)[C@H](C)NC(=O)[C@H](CC(C)C)NC(=O)[C@H](Cc1ccc(O)cc1)NC(=O)[C@H](CC(N)=O)NC(=O)[C@H](C)NC(=O)CCC(=O)O)[C@@H](C)CC)[C@@H](C)CC)C(N)=O
B10: peptide 19 (peptide)
peptide: Suc-ENYLALIEELIRKAQEQQEKNEAALR-NH2
SMILES: CC[C@H](C)[C@H](NC(=O)[C@H](CC(C)C)NC(=O)[C@H](C)NC(=O)[C@H](CC(C)C)NC(=O)[C@H](Cc1ccc(O)cc1)NC(=O)[C@H](CC(N)=O)NC(=O)[C@H](CCC(=O)O)NC(=O)CCC(=O)O)C(=O)N[C@@H](CCC(=O)O)C(=O)N[C@@H](CCC(=O)O)C(=O)N[C@@H](CC(C)C)C(=O)N[C@H](C(=O)N[C@@H](CCCNC(=N)N)C(=O)N[C@@H](CCCCN)C(=O)N[C@@H](C)C(=O)N[C@@H](CCC(N)=O)C(=O)N[C@@H](CCC(=O)O)C(=O)N[C@@H](CCC(N)=O)C(=O)N[C@@H](CCC(N)=O)C(=O)N[C@@H](CCC(=O)O)C(=O)N[C@@H](CCCCN)C(=O)N[C@@H](CC(N)=O)C(=O)N[C@@H](CCC(=O)O)C(=O)N[C@@H](C)C(=O)N[C@@H](C)C(=O)N[C@@H](CC(C)C)C(=O)N[C@@H](CCCNC(=N)N)C(N)=O)[C@@H](C)CC
B11: peptide 20 (peptide)
peptide: Suc-ENYLRLIEELIRKAQEQQEKNEAALR-NH2
SMILES: CC[C@H](C)[C@H](NC(=O)[C@H](CC(C)C)NC(=O)[C@H](CCC(=O)O)NC(=O)[C@H](CCC(=O)O)NC(=O)[C@@H](NC(=O)[C@H](CC(C)C)NC(=O)[C@H](CCCNC(=N)N)NC(=O)[C@H](CC(C)C)NC(=O)[C@H](Cc1ccc(O)cc1)NC(=O)[C@H](CC(N)=O)NC(=O)[C@H](CCC(=O)O)NC(=O)CCC(=O)O)[C@@H](C)CC)C(=O)N[C@@H](CCCNC(=N)N)C(=O)N[C@@H](CCCCN)C(=O)N[C@@H](C)C(=O)N[C@@H](CCC(N)=O)C(=O)N[C@@H](CCC(=O)O)C(=O)N[C@@H](CCC(N)=O)C(=O)N[C@@H](CCC(N)=O)C(=O)N[C@@H](CCC(=O)O)C(=O)N[C@@H](CCCCN)C(=O)N[C@@H](CC(N)=O)C(=O)N[C@@H](CCC(=O)O)C(=O)N[C@@H](C)C(=O)N[C@@H](C)C(=O)N[C@@H](CC(C)C)C(=O)N[C@@H](CCCNC(=N)N)C(N)=O

These binders were tested against gp41 of HIV-1 strain HXB2D with mutation V38A (HIV-1 strain HXB2D, UniProt P04578) (assay: cell-based or functional assay).

Point of comparison: B3, “fold change in EC50, HIV-HXB2D V38A mutant” value 49 fold. Against it:
- B1 — higher, 51 fold
- B2 — lower, 46 fold
- B4 — lower, 19 fold
- B5 — higher, 75 fold
- B6 — higher, 75 fold
- B7 — lower, 18 fold
- B8 — lower, 45 fold
- B9 — lower, 2 fold
- B10 — lower, 22 fold
- B11 — lower, 8 fold

Source: patent publication US20140357577A1, “HIV Membrane Fusion Inhibitors” (priority 2011, published 2014)
